According to patent US20250340595A1 (published 2025):
Starred links: 1 amine or outer side, 2 acyl side, 3 side chain; linkers in the order of their positions; H or OH if unused. Positions of bridges follow the written chain, without caps; N, C: chain ends. Non-standard residues stand in square brackets, D forms with d. No end group written: not given here. Fluorescein = fluorescein label on the C-terminal Lys side chain; TATA = O=C(CC[*:1])N1CN(C(=O)CC[*:2])CN(C(=O)CC[*:3])C1; TATB = O=C(C[*:1])N1CN(C(=O)C[*:2])CN(C(=O)C[*:3])C1; Tle = CC(C)(C)[C@H](N)C(=O)O; Sar = CNCC(=O)O

B1: BCY12452 (peptide)
peptide: ACREFFDTCGLAFIECA-NH2
modifications: linker 2-9-16 via TATA; N-terminus assumed
SMILES: CC[C@H](C)[C@@H]1NC(=O)[C@H](Cc2ccccc2)NC(=O)[C@H](C)NC(=O)[C@H](CC(C)C)NC(=O)CNC(=O)[C@@H]2CSCCC(=O)N3CN(CN(C3)C(=O)CCSC[C@@H](C(=O)N[C@@H](C)C(N)=O)NC(=O)[C@H](CCC(=O)O)NC1=O)C(=O)CCSC[C@H](NC(=O)[C@H](C)N)C(=O)N[C@@H](CCCNC(=N)N)C(=O)N[C@@H](CCC(=O)O)C(=O)N[C@@H](Cc1ccccc1)C(=O)N[C@@H](Cc1ccccc1)C(=O)N[C@@H](CC(=O)O)C(=O)N[C@@H]([C@@H](C)O)C(=O)N2

Target: T1, Human TfR1 protein (R&D Systems, 2474-TR or Acro Biosystems, CD1-H5243) (human, UniProt P02786 89-760)
Test: FP competition, competitor BCY15768

T1 sequence (P02786 89-760 limits assumed): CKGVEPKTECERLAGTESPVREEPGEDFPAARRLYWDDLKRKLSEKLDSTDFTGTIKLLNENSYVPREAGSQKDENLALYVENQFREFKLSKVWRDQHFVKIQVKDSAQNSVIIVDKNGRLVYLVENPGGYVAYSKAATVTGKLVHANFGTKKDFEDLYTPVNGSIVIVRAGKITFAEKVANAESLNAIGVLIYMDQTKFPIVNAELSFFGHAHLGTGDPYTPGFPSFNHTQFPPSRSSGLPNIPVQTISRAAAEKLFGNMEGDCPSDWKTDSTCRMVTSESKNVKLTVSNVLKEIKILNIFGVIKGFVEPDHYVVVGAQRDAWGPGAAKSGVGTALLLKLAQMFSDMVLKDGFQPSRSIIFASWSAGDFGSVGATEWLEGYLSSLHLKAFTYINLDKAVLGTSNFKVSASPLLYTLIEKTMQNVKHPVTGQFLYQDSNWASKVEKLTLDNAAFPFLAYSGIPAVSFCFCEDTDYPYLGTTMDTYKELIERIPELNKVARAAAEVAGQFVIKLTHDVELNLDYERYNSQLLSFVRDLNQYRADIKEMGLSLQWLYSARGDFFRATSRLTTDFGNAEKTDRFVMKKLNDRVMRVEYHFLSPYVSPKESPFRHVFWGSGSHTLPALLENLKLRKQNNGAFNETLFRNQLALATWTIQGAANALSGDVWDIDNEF

| Binder | Ki |
| --- | --- |
| ACSADDWLGCISYCA (linker 2-10-14 via TATB) [BCY15471] | 0.434 µM |
| HTSCSPDAHLGCISYCA (linker 4-12-16 via TATB) [BCY17111] | 0.086 µM |
| TYMNCPPDAHLGCISYCA (linker 5-13-17 via TATB (inferred)) [BCY17117] | 0.037 µM |
| WGKSCPIDAHLGCISYCA (linker 5-13-17 via TATB (inferred)) [BCY17116] | 0.075 µM |
| ACSPDAHLGCISYCEHQE (linker 2-10-14 via TATB (inferred)) [BCY17119] | 0.16 µM |
| ACPPDSWQGCISYCA (linker 2-10-14 via TATB) [BCY13989] | 0.565 µM |
| IDSNCPNDAHLGCISYCA (linker 5-13-17 via TATB (inferred)) [BCY17118] | 0.07 µM |
| ACPQDAYLGCISWCA (linker 2-10-14 via TATB) [BCY15467] | 0.133 µM |
| ESFCSPDAHLGCISYCA (linker 4-12-16 via TATB) [BCY17113] | 0.103 µM |
| ACSPDAHLGC[Tle]SYCA (linker 2-10-14 via TATB) [BCY16051] | 0.066 µM |

Target: T1, Human TfR1 protein (R&D Systems, …)
Test: Alpha assay, competition with labelled transferrin

| Binder | IC50 |
| --- | --- |
| ACALCNDWTLPWHHCA (3 Cys on TATA) [BCY12455] | 0.673 µM |
| B1 | 1.22 µM |
| ACLEACYDGVYWYSCA (3 Cys on TATA) [BCY12454] | 0.893 µM |

Target: T2, Recombinant cynomolgus TfR1, His6-tagged (a.a. 89-760) (cynomolgus, UniProt H9EXL1 89-760 (rhesus entry))
T2 construct: range 89-760; same product number named for FP and SPR; also called Cyno TfR1; Acro Biosystems TFR-C524a
Test: SPR, TfR1 on chip

T2 sequence (chain, as listed by the source): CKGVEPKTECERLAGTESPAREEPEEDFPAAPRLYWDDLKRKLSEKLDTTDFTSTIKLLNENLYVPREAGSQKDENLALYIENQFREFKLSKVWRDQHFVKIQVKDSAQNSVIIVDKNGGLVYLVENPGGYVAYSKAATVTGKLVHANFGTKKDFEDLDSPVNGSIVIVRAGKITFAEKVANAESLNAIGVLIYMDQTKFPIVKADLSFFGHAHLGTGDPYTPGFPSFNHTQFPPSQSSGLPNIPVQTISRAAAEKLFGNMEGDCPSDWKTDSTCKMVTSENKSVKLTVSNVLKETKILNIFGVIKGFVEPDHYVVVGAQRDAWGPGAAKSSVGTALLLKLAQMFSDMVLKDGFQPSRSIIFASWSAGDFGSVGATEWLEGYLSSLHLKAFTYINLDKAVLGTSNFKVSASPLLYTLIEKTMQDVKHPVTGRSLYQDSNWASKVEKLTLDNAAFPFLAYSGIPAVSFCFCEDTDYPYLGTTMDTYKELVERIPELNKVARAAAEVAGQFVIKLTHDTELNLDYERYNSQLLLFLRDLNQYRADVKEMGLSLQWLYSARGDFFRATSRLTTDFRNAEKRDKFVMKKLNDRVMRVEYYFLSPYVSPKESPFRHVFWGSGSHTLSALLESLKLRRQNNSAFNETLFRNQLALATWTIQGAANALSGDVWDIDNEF

| Binder | Kd |
| --- | --- |
| ACPPDAHLGCISYCA (3 Cys on TATB) [BCY16048] | 1.28 µM |
| ACSPDAHLGCISYCAXXXXXXK (3 Cys on TATB; [Sar6]; C-terminal Lys carries fluorescein) [BCY15768] | 3.8 µM |
| ACSPDAALGCISYCA[Sar][Sar][Sar][Sar][Sar][Sar]K(Fluorescein) (linker 2-10-14 via TATB) [BCY15773] | 2.6 µM |
| ACSADAHLGCISYCA[Sar][Sar][Sar][Sar][Sar][Sar]K(Fluorescein) (linker 2-10-14 via TATB) [BCY15771] | 4 µM |
| ACSPAAHLGCISYCA[Sar][Sar][Sar][Sar][Sar][Sar]K(Fluorescein) (linker 2-10-14 via TATB) [BCY15772] | 99 µM |
| ACAPDAHLGCISYCA[Sar][Sar][Sar][Sar][Sar][Sar]K(Fluorescein) (linker 2-10-14 via TATB) [BCY15769] | 2.2 µM |
| ACSPDAHAGCISYCAXXXXXXK (3 Cys on TATB; [Sar6]; C-terminal Lys carries fluorescein) [BCY15774] | 41 µM |
| HTSCSPDAHLGCISYCA (linker 4-12-16 via TATB) [BCY17111] | 0.907 µM |
| TYMNCPPDAHLGCISYCA (linker 5-13-17 via TATB (inferred)) [BCY17117] | 0.805 µM |
| WGKSCPIDAHLGCISYCA (linker 5-13-17 via TATB (inferred)) [BCY17116] | 0.474 µM |
| ACSPDAHLGCISYCEHQE (linker 2-10-14 via TATB (inferred)) [BCY17119] | 5.65 µM |
| ACPPDSWQGCISYCA (linker 2-10-14 via TATB) [BCY13989] | ~11 µM |
| IDSNCPNDAHLGCISYCA (linker 5-13-17 via TATB (inferred)) [BCY17118] | 1.96 µM |
| ESFCSPDAHLGCISYCA (linker 4-12-16 via TATB) [BCY17113] | 1.66 µM |
| ACSPDAHLGC[Tle]SYCA (linker 2-10-14 via TATB) [BCY16051] | 1.82 µM |

Target: T3, Recombinant human TfR1, His6-tagged (a.a. 89-760) (human, UniProt P02786 89-760)
T3 construct: range 89-760; captured and coupled on an NTA chip for SPR; also called transferrin receptor 1; CD71
Test: SPR, TfR1 on chip

T3 sequence (P02786 89-760 limits assumed): as the sequence (P02786 89-760 limits assumed) above

| Binder | Kd |
| --- | --- |
| ACAPDAHLGCISYCA[Sar][Sar][Sar][Sar][Sar][Sar]K(Fluorescein) (linker 2-10-14 via TATB) [BCY15769] | 0.07 µM |
| HTSCSPDAHLGCISYCA (linker 4-12-16 via TATB) [BCY17111] | 0.0083 µM |
| TYMNCPPDAHLGCISYCA (linker 5-13-17 via TATB (inferred)) [BCY17117] | 0.0042 µM |
| WGKSCPIDAHLGCISYCA (linker 5-13-17 via TATB (inferred)) [BCY17116] | 0.001 µM |
| ACSPDAHLGCISYCEHQE (linker 2-10-14 via TATB (inferred)) [BCY17119] | 0.212 µM |
| IDSNCPNDAHLGCISYCA (linker 5-13-17 via TATB (inferred)) [BCY17118] | 0.12 µM |
| ESFCSPDAHLGCISYCA (linker 4-12-16 via TATB) [BCY17113] | 0.308 µM |
| ACSPDAHLGC[Tle]SYCA (linker 2-10-14 via TATB) [BCY16051] | 0.025 µM |

Target: T2, Recombinant cynomolgus TfR1, …
Test: FP direct binding

| Binder | Kd |
| --- | --- |
| ACSPDAHLGCISYCAXXXXXXK (3 Cys on TATB; [Sar6]; C-terminal Lys carries fluorescein) [BCY15768] | 0.707 µM |
| ACPPDSWQGCISYCA[Sar][Sar][Sar][Sar][Sar][Sar]K(Fluorescein) (linker 2-10-14 via TATB) [BCY14476] | 3.65 µM |
| ACSSDAYLGCISWCA[Sar][Sar][Sar][Sar][Sar][Sar]K(Fluorescein) (linker 2-10-14 via TATB) [BCY14475] | 2.62 µM |
| ACALCNDWTLPWHHCA[Sar][Sar][Sar][Sar][Sar][Sar]K(Fluorescein) (linker 2-5-15 via TATA) [BCY12652] | 0.098 µM |

Target: T2, Recombinant cynomolgus TfR1, …
Test: SPR, TfR1 on chip
Remark: another data set of the same source

| Binder | Kd |
| --- | --- |
| ACALCNDWTLPWHHCA (3 Cys on TATA) [BCY12455] | 42.4 µM |
| ACSADDWLGCISWCA (3 Cys on TATB) [BCY13983] | 4580 µM |
| ACSADDWLGCISYCA (linker 2-10-14 via TATB) [BCY15471] | 4660 µM |
| ACSSDAYLGCISWCA (3 Cys on TATB) [BCY13986] | 2590 µM |
| ACPPDSWQGCISYCA (linker 2-10-14 via TATB) [BCY13989] | 3440 µM |
| ACPQDAYLGCISWCA (linker 2-10-14 via TATB) [BCY15467] | 1580 µM |

Target: T3, Recombinant human TfR1, His6-tagged …
Test: SPR, TfR1 on chip
Remark: another data set of the same source

| Binder | Kd |
| --- | --- |
| ACALCNDWTLPWHHCA (3 Cys on TATA) [BCY12455] | 65.6 µM |
| ACSADDWLGCISWCA (3 Cys on TATB) [BCY13983] | 450 µM |
| ACSADDWLGCISYCA (linker 2-10-14 via TATB) [BCY15471] | 263 µM |
| ACSSDAYLGCISWCA (3 Cys on TATB) [BCY13986] | 132 µM |
| ACPPDSWQGCISYCA (linker 2-10-14 via TATB) [BCY13989] | 376 µM |
| ACPQDAYLGCISWCA (linker 2-10-14 via TATB) [BCY15467] | 29.5 µM |

Target: T2, Recombinant cynomolgus TfR1, …
Test: FP competition table (Table 6)

| Binder | Ki |
| --- | --- |
| ACSPDAHLGCISYCAXXXXXXK (3 Cys on TATB; [Sar6]; C-terminal Lys carries fluorescein) [BCY15768] | 1.07 µM |
| ACSPDAALGCISYCA[Sar][Sar][Sar][Sar][Sar][Sar]K(Fluorescein) (linker 2-10-14 via TATB) [BCY15773] | 2.3 µM |
| ACSADAHLGCISYCA[Sar][Sar][Sar][Sar][Sar][Sar]K(Fluorescein) (linker 2-10-14 via TATB) [BCY15771] | 1.06 µM |
| ACSPDAHLGCISACA[Sar][Sar][Sar][Sar][Sar][Sar]K(Fluorescein) (linker 2-10-14 via TATB) [BCY15770] | 4.04 µM |
| ACSPAAHLGCISYCA[Sar][Sar][Sar][Sar][Sar][Sar]K(Fluorescein) (linker 2-10-14 via TATB) [BCY15772] | 7.08 µM |
| ACAPDAHLGCISYCA[Sar][Sar][Sar][Sar][Sar][Sar]K(Fluorescein) (linker 2-10-14 via TATB) [BCY15769] | 1.12 µM |
| ACSPDAHAGCISYCAXXXXXXK (3 Cys on TATB; [Sar6]; C-terminal Lys carries fluorescein) [BCY15774] | 3.47 µM |
| ACSPDAHLGCIAYCA[Sar][Sar][Sar][Sar][Sar][Sar]K(Fluorescein) (linker 2-10-14 via TATB) [BCY15777] | 2.91 µM |

Target: T2, Recombinant cynomolgus TfR1, …
Test: FP competition, competitor BCY15768

| Binder | Ki |
| --- | --- |
| ACPPDAHLGCISYCA (3 Cys on TATB) [BCY16048] | 0.621 µM |
| ACSADDWLGCISYCA (linker 2-10-14 via TATB) [BCY15471] | 4.66 µM |
| ACPPDSWQGCISYCA (linker 2-10-14 via TATB) [BCY13989] | 3.44 µM |
| ACSPDAHLGC[Tle]SYCA (linker 2-10-14 via TATB) [BCY16051] | 0.482 µM |

Target: T1, Human TfR1 protein (R&D Systems, …)
Test: FP competition, competitor BCY15768
Remark: another data set of the same source

| Binder | Ki |
| --- | --- |
| ACSADDWLGCISYCA (linker 2-10-14 via TATB) [BCY15471] | 0.434 µM |
| HTSCSPDAHLGCISYCA (linker 4-12-16 via TATB) [BCY17111] | 0.086 µM |
| TYMNCPPDAHLGCISYCA (linker 5-13-17 via TATB (inferred)) [BCY17117] | 0.037 µM |
| WGKSCPIDAHLGCISYCA (linker 5-13-17 via TATB (inferred)) [BCY17116] | 0.075 µM |
| ACSPDAHLGCISYCEHQE (linker 2-10-14 via TATB (inferred)) [BCY17119] | 0.16 µM |
| ACPPDSWQGCISYCA (linker 2-10-14 via TATB) [BCY13989] | 0.565 µM |
| IDSNCPNDAHLGCISYCA (linker 5-13-17 via TATB (inferred)) [BCY17118] | 0.07 µM |
| ESFCSPDAHLGCISYCA (linker 4-12-16 via TATB) [BCY17113] | 0.103 µM |
| ACSPDAHLGC[Tle]SYCA (linker 2-10-14 via TATB) [BCY16051] | 0.066 µM |
